Data as given in PMC9482650, “Quantitative fragmentomics allow affinity mapping of interactomes” (Nature Communications, 2022).

Tests used:
Experiment in all cases: holdup assay
Design in all cases: key: below the threshold = too weak to quantify, mostly under pKd 3.1 to 4
LIN7A, O14910 = target: T1, LIN7A, O14910
T1 sequence (O14910 103-200, limits assumed, looked up): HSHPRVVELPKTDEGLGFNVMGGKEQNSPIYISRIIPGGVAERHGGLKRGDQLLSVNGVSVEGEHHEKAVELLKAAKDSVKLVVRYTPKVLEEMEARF

MAGI1_1, Q96QZ7 = target: MAGI1_1, Q96QZ7
Sequence of MAGI1_1, Q96QZ7 (Q96QZ7 1-106): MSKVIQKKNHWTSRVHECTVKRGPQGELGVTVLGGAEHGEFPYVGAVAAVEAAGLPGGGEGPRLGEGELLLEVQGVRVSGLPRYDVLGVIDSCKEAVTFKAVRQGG

RADIL, Q96JH8 = target: T2, RADIL, Q96JH8
T2 sequence (Q96JH8 971-1071, limits assumed, looked up): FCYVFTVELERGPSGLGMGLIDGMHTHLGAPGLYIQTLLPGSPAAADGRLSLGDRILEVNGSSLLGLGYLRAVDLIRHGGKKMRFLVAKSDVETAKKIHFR

ARHGAP21, Q5T5U3 = target: T3, ARHGAP21, Q5T5U3
T3 sequence (Q5T5U3 45-169, limits assumed, looked up): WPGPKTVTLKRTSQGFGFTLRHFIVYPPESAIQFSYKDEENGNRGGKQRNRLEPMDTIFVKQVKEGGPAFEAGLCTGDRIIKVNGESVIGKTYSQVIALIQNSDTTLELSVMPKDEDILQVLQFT

PDZRN3_1, Q9UPQ7 = target: T4, PDZRN3_1, Q9UPQ7
T4 sequence (Q9UPQ7 244-349, limits assumed, looked up): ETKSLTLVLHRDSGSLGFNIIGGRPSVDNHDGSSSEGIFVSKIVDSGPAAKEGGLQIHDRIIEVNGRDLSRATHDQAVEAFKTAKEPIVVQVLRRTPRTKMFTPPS

GRIP2_6, Q9C0E4 = target: GRIP2_6, Q9C0E4
Sequence of GRIP2_6, Q9C0E4 (Q9C0E4 648-740): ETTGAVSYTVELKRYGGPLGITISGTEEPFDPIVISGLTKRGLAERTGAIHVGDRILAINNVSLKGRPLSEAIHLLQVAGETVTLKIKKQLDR

MAGI2_6, Q86UL8 = target: MAGI2_6, Q86UL8
Sequence of MAGI2_6, Q86UL8 (Q86UL8 1141-1229): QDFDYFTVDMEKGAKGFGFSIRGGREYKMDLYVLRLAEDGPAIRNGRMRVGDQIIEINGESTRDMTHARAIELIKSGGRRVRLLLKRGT

FRMPD3, Q5JV73 = target: FRMPD3, Q5JV73
Sequence of FRMPD3, Q5JV73 (Q5JV73 12-100): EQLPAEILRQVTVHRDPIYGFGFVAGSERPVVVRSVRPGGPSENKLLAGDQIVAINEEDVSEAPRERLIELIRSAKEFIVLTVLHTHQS

GIPC2, Q8TF65 = target: GIPC2, Q8TF65
Sequence of GIPC2, Q8TF65 (Q8TF65 112-203): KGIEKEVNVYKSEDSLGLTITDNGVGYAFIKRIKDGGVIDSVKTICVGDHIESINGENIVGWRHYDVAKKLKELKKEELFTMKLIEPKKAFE

Inadl_8, Q8NI35 = target: Inadl_8, Q8NI35
Sequence of Inadl_8, Q8NI35 (Q8NI35 1425-1530): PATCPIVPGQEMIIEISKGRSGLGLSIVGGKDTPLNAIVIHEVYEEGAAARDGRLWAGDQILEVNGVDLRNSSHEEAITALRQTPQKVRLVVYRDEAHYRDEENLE

MPP2, Q14168 = target: T5, MPP2, Q14168
T5 sequence (Q14168 180-250, limits assumed, looked up): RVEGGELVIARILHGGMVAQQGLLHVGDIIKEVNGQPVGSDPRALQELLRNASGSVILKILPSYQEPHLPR

SNX27, Q96L92 = target: SNX27, Q96L92
SCRIB_1, Q14160 = target: SCRIB_1, Q14160
Sequence of SCRIB_1, Q14160 (Q14160 718-814): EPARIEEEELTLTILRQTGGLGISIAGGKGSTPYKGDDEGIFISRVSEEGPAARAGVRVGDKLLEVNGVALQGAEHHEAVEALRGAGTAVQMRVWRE

DLG2_2, Q15700 = target: DLG2_2, Q15700
Sequence of DLG2_2, Q15700 (Q15700 189-283): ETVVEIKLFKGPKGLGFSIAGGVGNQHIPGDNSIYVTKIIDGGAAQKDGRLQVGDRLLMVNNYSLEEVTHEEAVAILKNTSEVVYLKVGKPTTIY

LIMK2, P53671 = target: LIMK2, P53671
Sequence of LIMK2, P53671 (P53671 143-248): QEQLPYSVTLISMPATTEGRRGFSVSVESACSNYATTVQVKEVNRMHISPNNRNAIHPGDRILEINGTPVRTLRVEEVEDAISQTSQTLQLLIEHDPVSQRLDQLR

LNX2_3, Q8N448 = target: T6, LNX2_3, Q8N448
T6 sequence (Q8N448 463-564, limits assumed, looked up): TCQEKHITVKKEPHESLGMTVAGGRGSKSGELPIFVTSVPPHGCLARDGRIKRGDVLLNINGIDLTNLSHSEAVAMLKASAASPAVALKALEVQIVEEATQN

NHERF4_1, Q86UT5-2 = target: NHERF4_1, Q86UT5-2
Sequence of NHERF4_1, Q86UT5-2 (Q86UT5 other isoform, or with tags, fused parts or gaps): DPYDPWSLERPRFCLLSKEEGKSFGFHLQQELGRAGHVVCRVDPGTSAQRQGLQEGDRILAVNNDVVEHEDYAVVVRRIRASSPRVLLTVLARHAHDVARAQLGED

LDB3, O75112 = target: LDB3, O75112
Sequence of LDB3, O75112 (O75112 1-94): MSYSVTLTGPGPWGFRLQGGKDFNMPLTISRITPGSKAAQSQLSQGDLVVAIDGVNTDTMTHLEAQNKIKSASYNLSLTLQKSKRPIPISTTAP

MAGI2_5, Q86UL8 = target: MAGI2_5, Q86UL8
Sequence of MAGI2_5, Q86UL8 (Q86UL8 915-1017): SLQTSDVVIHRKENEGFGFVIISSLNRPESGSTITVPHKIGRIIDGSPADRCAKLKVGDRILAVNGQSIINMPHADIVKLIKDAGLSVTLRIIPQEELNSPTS

MAST2, Q6P0Q8 = target: MAST2, Q6P0Q8
Sequence of MAST2, Q6P0Q8 (Q6P0Q8 1099-1202): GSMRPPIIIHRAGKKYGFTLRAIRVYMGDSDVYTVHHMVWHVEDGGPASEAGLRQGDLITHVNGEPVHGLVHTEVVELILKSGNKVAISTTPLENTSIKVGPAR

PTPN3, P26045 = target: PTPN3, P26045
Sequence of PTPN3, P26045 (P26045 505-587): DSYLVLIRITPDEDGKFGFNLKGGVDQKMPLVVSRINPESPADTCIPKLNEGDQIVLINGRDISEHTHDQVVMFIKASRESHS

CARD11, Q9BXL7 = target: T7, CARD11, Q9BXL7
T7 sequence (Q9BXL7 662-765, limits assumed, looked up): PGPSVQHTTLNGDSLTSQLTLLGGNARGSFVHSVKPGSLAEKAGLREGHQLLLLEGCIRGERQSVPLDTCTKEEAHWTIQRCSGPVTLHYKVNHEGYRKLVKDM

Inadl_10, Q8NI35 = target: Inadl_10, Q8NI35
Sequence of Inadl_10, Q8NI35 (Q8NI35 1673-1763): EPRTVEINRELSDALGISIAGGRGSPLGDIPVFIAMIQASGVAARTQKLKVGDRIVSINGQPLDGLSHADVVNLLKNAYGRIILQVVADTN

Inadl_3, Q8NI35 = target: Inadl_3, Q8NI35
Sequence of Inadl_3, Q8NI35 (Q8NI35 359-469): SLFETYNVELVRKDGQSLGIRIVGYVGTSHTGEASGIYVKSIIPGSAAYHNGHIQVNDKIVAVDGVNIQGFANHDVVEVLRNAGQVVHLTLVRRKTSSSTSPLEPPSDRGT

ARHGEF12, Q9NZN5-2 = target: ARHGEF12, Q9NZN5-2
Sequence of ARHGEF12, Q9NZN5-2 (Q9NZN5 other isoform, or with tags, fused parts or gaps): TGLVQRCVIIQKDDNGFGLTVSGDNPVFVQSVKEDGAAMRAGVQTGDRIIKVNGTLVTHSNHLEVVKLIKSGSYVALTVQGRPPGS

GRASP, Q7Z6J2 = target: GRASP, Q7Z6J2
Sequence of GRASP, Q7Z6J2 (Q7Z6J2 96-193): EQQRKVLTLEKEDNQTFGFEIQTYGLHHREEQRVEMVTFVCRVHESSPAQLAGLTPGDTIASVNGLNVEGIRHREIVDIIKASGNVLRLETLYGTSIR

FRMPD1, Q5SYB0 = target: T8, FRMPD1, Q5SYB0
T8 sequence (Q5SYB0 52-145, limits assumed, looked up): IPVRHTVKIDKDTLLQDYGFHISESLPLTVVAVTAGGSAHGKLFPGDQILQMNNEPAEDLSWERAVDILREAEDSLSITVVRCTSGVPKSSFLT

DLG4_1, P78352 = target: DLG4_1, P78352
Sequence of DLG4_1, P78352 (P78352 62-152): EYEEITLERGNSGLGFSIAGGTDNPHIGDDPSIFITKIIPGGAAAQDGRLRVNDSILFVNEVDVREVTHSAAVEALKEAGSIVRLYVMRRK

PARD3B_1, Q8TEW8 = target: T9, PARD3B_1, Q8TEW8
T9 sequence (Q8TEW8 196-299, limits assumed, looked up): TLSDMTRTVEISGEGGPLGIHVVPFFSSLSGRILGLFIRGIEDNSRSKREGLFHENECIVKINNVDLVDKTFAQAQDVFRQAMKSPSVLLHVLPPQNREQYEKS

[1] = plain residues with an end cap or a label only (N-terminal biotin on a linker: ado-ado)
[2] = plain residues with an end cap or a label only (N-terminal biotin on a linker: ahx)

RSSGGDDFWF [KCNV1, Q6PIU1]
pKd (LIN7A, O14910; [1]): below the threshold
pKd (MAGI1_1, Q96QZ7; [1]): below the threshold
pKd (RADIL, Q96JH8; [1]): below the threshold
pKd (ARHGAP21, Q5T5U3; [1]): 4.8
pKd (PDZRN3_1, Q9UPQ7; [1]): below the threshold
pKd (GRIP2_6, Q9C0E4; [1]): below the threshold
pKd (MAGI2_6, Q86UL8; [1]): below the threshold
pKd (FRMPD3, Q5JV73; [1]): 4.82
pKd (GIPC2, Q8TF65; [1]): below the threshold
pKd (Inadl_8, Q8NI35; [1]): below the threshold
pKd (MPP2, Q14168; [1]): below the threshold
pKd (SNX27, Q96L92; [1]): 4.15
pKd (SCRIB_1, Q14160; [1]): below the threshold
pKd (DLG2_2, Q15700; [1]): below the threshold
pKd (LIMK2, P53671; [1]): below the threshold
pKd (LNX2_3, Q8N448; [1]): below the threshold
pKd (NHERF4_1, Q86UT5-2; [1]): below the threshold
pKd (LDB3, O75112; [1]): below the threshold
pKd (MAGI2_5, Q86UL8; [1]): below the threshold
pKd (MAST2, Q6P0Q8; [1]): 4.61
pKd (PTPN3, P26045; [1]): 4.35
pKd (CARD11, Q9BXL7; [1]): below the threshold
pKd (Inadl_10, Q8NI35; [1]): below the threshold
pKd (Inadl_3, Q8NI35; [1]): 3.59
pKd (ARHGEF12, Q9NZN5-2; [1]): below the threshold
pKd (GRASP, Q7Z6J2; [1]): below the threshold
pKd (FRMPD1, Q5SYB0; [1]): below the threshold
pKd (DLG4_1, P78352; [1]): below the threshold
pKd (PARD3B_1, Q8TEW8; [1]): 4.48

TESNLQTSSC [CGN, Q9P2M7]
pKd (LIN7A, O14910; [2]): below the threshold
pKd (MAGI1_1, Q96QZ7; [2]): below the threshold
pKd (RADIL, Q96JH8; [2]): below the threshold
pKd (ARHGAP21, Q5T5U3; [2]): 3.51
pKd (PDZRN3_1, Q9UPQ7; [2]): below the threshold
pKd (GRIP2_6, Q9C0E4; [2]): below the threshold
pKd (MAGI2_6, Q86UL8; [2]): below the threshold
pKd (FRMPD3, Q5JV73; [2]): below the threshold
pKd (GIPC2, Q8TF65; [2]): 3.78
pKd (Inadl_8, Q8NI35; [2]): 4.18
pKd (MPP2, Q14168; [2]): below the threshold
pKd (SNX27, Q96L92; [2]): 4.65
pKd (SCRIB_1, Q14160; [2]): below the threshold
pKd (DLG2_2, Q15700; [2]): below the threshold
pKd (LIMK2, P53671; [2]): below the threshold
pKd (LNX2_3, Q8N448; [2]): below the threshold
pKd (NHERF4_1, Q86UT5-2; [2]): 3.62
pKd (LDB3, O75112; [2]): below the threshold
pKd (MAGI2_5, Q86UL8; [2]): below the threshold
pKd (MAST2, Q6P0Q8; [2]): below the threshold
pKd (PTPN3, P26045; [2]): below the threshold
pKd (CARD11, Q9BXL7; [2]): below the threshold
pKd (Inadl_10, Q8NI35; [2]): 3.6
pKd (Inadl_3, Q8NI35; [2]): 3.64
pKd (ARHGEF12, Q9NZN5-2; [2]): 3.71
pKd (GRASP, Q7Z6J2; [2]): 3.95
pKd (FRMPD1, Q5SYB0; [2]): below the threshold
pKd (DLG4_1, P78352; [2]): below the threshold
pKd (PARD3B_1, Q8TEW8; [2]): below the threshold

APSRKLNTEI [TIAM1, Q13009]
pKd (LIN7A, O14910; [2]): below the threshold
pKd (MAGI1_1, Q96QZ7; [2]): below the threshold
pKd (RADIL, Q96JH8; [2]): below the threshold
pKd (ARHGAP21, Q5T5U3; [2]): below the threshold
pKd (PDZRN3_1, Q9UPQ7; [2]): below the threshold
pKd (GRIP2_6, Q9C0E4; [2]): below the threshold
pKd (MAGI2_6, Q86UL8; [2]): below the threshold
pKd (FRMPD3, Q5JV73; [2]): below the threshold
pKd (GIPC2, Q8TF65; [2]): below the threshold
pKd (Inadl_8, Q8NI35; [2]): below the threshold
pKd (MPP2, Q14168; [2]): below the threshold
pKd (SNX27, Q96L92; [2]): below the threshold
pKd (SCRIB_1, Q14160; [2]): below the threshold
pKd (DLG2_2, Q15700; [2]): below the threshold
pKd (LIMK2, P53671; [2]): below the threshold
pKd (LNX2_3, Q8N448; [2]): below the threshold
pKd (NHERF4_1, Q86UT5-2; [2]): below the threshold
pKd (LDB3, O75112; [2]): below the threshold
pKd (MAGI2_5, Q86UL8; [2]): below the threshold
pKd (MAST2, Q6P0Q8; [2]): below the threshold
pKd (PTPN3, P26045; [2]): below the threshold
pKd (CARD11, Q9BXL7; [2]): below the threshold
pKd (Inadl_10, Q8NI35; [2]): below the threshold
pKd (Inadl_3, Q8NI35; [2]): below the threshold
pKd (ARHGEF12, Q9NZN5-2; [2]): 3.76
pKd (GRASP, Q7Z6J2; [2]): below the threshold
pKd (FRMPD1, Q5SYB0; [2]): below the threshold
pKd (DLG4_1, P78352; [2]): below the threshold
pKd (PARD3B_1, Q8TEW8; [2]): below the threshold
